From article PMC8445988, “Characterization of two β-galactosidases LacZ and WspA1 from Nostoc flagelliforme with focus on the latter’s central active region” (Scientific Reports, 2021) come the findings set out here.

In general, Km refers to the concentration of substrate that gives half-maximal velocity. For orientation: stoichiometry N means a count of units in the complex or per binding partner.

Substrate in the data set “purified protein”: O=[N+]([O-])c1ccccc1O[C@@H]1O[C@H](CO)[C@H](O)[C@H](O)[C@H]1O
The data set is described as follows: purified protein.

Data set [1] concerns the molecule itself. The data set is described as follows: SEC; gel filtration on an FPLC system (AKTA purifier), 20 mM Tris-HCl, 150 mM NaCl, 10% glycerol, pH 7.5; five molecular weight markers (200, 150, 66, 29, 12.4 kDa); absorbance at 280 nm.

B1: Nf-LacZ (β-galactosidase LacZ of Nostoc flagelliforme) (enzyme, UniProt A0A2K8T1B7 1-619, looked up)
chain: MKLLDIQKRKVESPSNRDNQRVSSFPEAGYPRPQLQRSHWLSLNGLWKFAFDNEGRCVQPGDIEGWTHHIQVPFAPESTKSGIGDTGFHPNCWYEREFETPEGDGRLLLHFGAVDYRARVWVNGQYMIEHEGGHTPFTLDITTVLNDTGITKVTVWAQDDPGDLAKPRGKQDWQLEPHSIWYPRTSGIWQTVWIERVGRTYIDSIRWSPDFERWEVGCYAAIAGDAPAGIQIKVKLSIGNTVLANDTYEVFNGEIGRRISLSDPGIDDYRNELLWSPEKPTLMDAHIELWHNNQLLDEAKSYTAMRTVGIQRDRFMLNGRPYYLRLVLDQGYWPDSLMTAPDDGALRRDVELTKAMGFNGVRKHQKIEDPRFLYWADKLGLLVWEEMPSAYRFTPKAVERTTREWAEVIRRDISHPCIVAWVTFNESWGVPNLVETAAHRNYVLAMYHLTKTLDPGRPVIANDGWESTDTDILAIHDYDTHPQRLGHRYGPEVKLSDLFDRKRPGGRILTLDNFPHQGQPVMLTEFGGIAYAPVDNPDADKAWGYERCSNISELEIKYATLLETINDIELFSGFCYTQFTDTFQEANGLLYADRTPKFPIEAIRAATLSGQGLCTPTSC
notes: β-galactosidase LacZ homolog of Nostoc flagelliforme, NCBI AUB41471, gene COO91_07519 (KEGG); 619 amino acid residues, calculated 70.8 kDa; The number of chains in the multimer is left open (at least a trimer or larger); also called COO91_07519; AUB41471
In the case of B1, the Km in the data set “purified protein” is 500 µM. In data set [1], the “stoichiometry N” value was not below 3.
